From JP2000166573A come the findings set out here.

This experiment deals with 抗Fasモノクローナル抗体HFE7A (mouse anti-human Fas monoclonal antibody HFE7A, from hybridoma FERM BP-5828). Put plainly: peptide (200 μg) preincubated with HFE7A (0.25 μg), then binding to WR19L12a cells by flow cytometry. (In general: In flow cytometry, cells or beads pass a laser one at a time.)

Take KCRCKPNFFC [P110 (synthetic 10-residue peptide of the human Fas extracellular region)]: the 結合阻害 (percent inhibition) was found to be 60%. To EINCTRTQNT [P100 (synthetic 10-residue peptide of the human Fas extracellular region)] belongs 50%.
